Values of other authors in PMC11988805.

Tests used:
[1] = target: stapled BH3 peptide BH3 (Homo sapiens) (UniProt P55957)
[2] = target: unstapled BH3 peptide BH3 (Homo sapiens) (UniProt P55957)

- Kd [1]: 38.8 nM
- Kd [2]: 269 nM
Substance: Bcl-2 (from UniProt P10415)
